According to the supplement of paper PMC10201428:
± gives the standard deviation of the averaged measurements.

Experiments:
[1] = test system: VchCAST RNA-guided transposition machinery (E. coli BL21(DE3) host, lacZ target); assay: relative integration efficiency (T-RL orientation) vs wild-type transposon end (log2 (normalized fold change)); transposon end mutated: right end (5 bp flank + 75 bp right end); higher = more efficient transposition
How it was run: (§1)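 A T7-driven effector plasmid encoding a CRISPR array, tniQ-cas8-cas7-cas6 and tnsA-tnsB-tnsC was co-transformed into E. coli BL21(DE3) together with a pUC57 mini-transposon donor holding barcoded pools of 1549 left-end or 1849 right-end variants. Transformants were plated with 0.1 mM IPTG at 37°C for 18 h. Illumina sequencing of PCR-amplified input plasmids and genomic integration junctions gave barcode abundances, and relative integration efficiency is their output/input fold change, normalised to reference barcodes and log-transformed.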

[2] = test system: VchCAST RNA-guided transposition machinery (E. coli BL21(DE3) host, lacZ target); assay: relative integration efficiency (T-LR orientation) vs wild-type transposon end (log2 (normalized fold change)); transposon end mutated: right end (5 bp flank + 75 bp right end); higher = more efficient transposition
How it was run: as §1

Sequence | relative integration efficiency (log2) [1] | relative integration efficiency (log2) [2]
ACATTTGTTGATACACCCATAAATTGATATTGCCAACCATATATTGATATCTCTCACAACCATAAAGTGATATTTACTCTGATCATAGTCAGACCAACATTGCTACGACCCGTATTCGCACCGACAC | -1.21 ± 0.24 | -0.365 ± 0.021
ACATTTGTTGATACACCCATAAATTGATATTGCCAACCATATATTGATATCTCTCACAACCATAAGTTGATATTTTCTCTGATCATAGTCAGACCAACATTGCTACGACCCGTATTCGCACCGACAC | 0.0747 ± 0.27 | 1.12 ± 0.16
ACATTTGTTGATACACCCATAAATTGATATTGCCAACCATATATTGATATCTCTCACAACCATATATTGATATCTCCTCTGATCATAGTCAGACCAACATTGCTACGACCCGTATTCGCACCGACAC | -1.29 ± 0.34 | -0.214 ± 0.48
ACATTTGTTGATACACCCATAAATTGATATTGCCAACCATATATTGATATCTCTCACACCCATAAATTGATAATTACTCTGATCATAGTCAGACCAACATTGCTACGACCCGTATTCGCACCGACAC | -1.1 ± 0.15 | 0.0732 ± 0.11
ACATTTGTTGATACACCCATAAATTGATATTGCCAACCATATATTGATATCTCTCACACCCATAAATTGATATTGCCTCTGATCATAGTCAGACCAACATTGCTACGACCCGTATTCGCACCGACAC | -1.11 ± 0.06 | -0.587 ± 0.35
ACATTTGTTGATACACCCATAAATTGATATTGCCAACCATATATTGATATCTCTCAGTGGGTATTTAACTATAACGCTCTGATCATAGTCAGACCAACATTGCTACGACCCGTATTCGCACCGACAC | -1.7 ± 0.32 | 2.26 ± 0.088
ACATTTGTTGATACACCCATAAATTGATATTGCCACCCATAAATTGATAATTATCACAACCATAAAATGATAATTACTCTGATCATAGTCAGACCAACATTGCTACGACCCGTATTCGCACCGACAC | -0.382 ± 0.087 | -0.453 ± 0.047
ACATTTGTTGATACACCCATAAATTGATATTGCCACCCATAAATTGATAATTATCACAACCATAAAGTGATATTTACTCTGATCATAGTCAGACCAACATTGCTACGACCCGTATTCGCACCGACAC | -0.75 ± 0.089 | -0.376 ± 0.6
ACATTTGTTGATACACCCATAAATTGATATTGCCACCCATAAATTGATAATTATCACAACCATAAGTTGATATTTTCTCTGATCATAGTCAGACCAACATTGCTACGACCCGTATTCGCACCGACAC | -0.676 ± 0.16 | -0.238 ± 0.32
ACATTTGTTGATACACCCATAAATTGATATTGCCACCCATAAATTGATAATTATCACAACCATATATTGATATCTCCTCTGATCATAGTCAGACCAACATTGCTACGACCCGTATTCGCACCGACAC | -1.14 ± 0.14 | -0.478 ± 0.18
ACATTTGTTGATACACCCATAAATTGATATTGCCACCCATAAATTGATAATTATCACACCCATAAATTGATAATTACTCTGATCATAGTCAGACCAACATTGCTACGACCCGTATTCGCACCGACAC | -0.597 ± 0.26 | -0.0383 ± 0.28
ACATTTGTTGATACACCCATAAATTGATATTGCCACCCATAAATTGATAATTATCACACCCATAAATTGATATTGCCTCTGATCATAGTCAGACCAACATTGCTACGACCCGTATTCGCACCGACAC | -0.842 ± 0.076 | -0.216 ± 0.095
ACATTTGTTGATACACCCATAAATTGATATTGCCACCCATAAATTGATAATTATCAGTGGGTATTTAACTATAACGCTCTGATCATAGTCAGACCAACATTGCTACGACCCGTATTCGCACCGACAC | -1.42 ± 0.14 | 2.03 ± 0.071
ACATTTGTTGATACACCCATAAATTGATATTGCCACCCATAAATTGATATTGCTCACAACCATAAAATGATAATTACTCTGATCATAGTCAGACCAACATTGCTACGACCCGTATTCGCACCGACAC | -0.874 ± 0.16 | -0.156 ± 0.22
ACATTTGTTGATACACCCATAAATTGATATTGCCACCCATAAATTGATATTGCTCACAACCATAAAGTGATATTTACTCTGATCATAGTCAGACCAACATTGCTACGACCCGTATTCGCACCGACAC | -0.811 ± 0.21 | 0.0649 ± 0.043
ACATTTGTTGATACACCCATAAATTGATATTGCCACCCATAAATTGATATTGCTCACAACCATAAGTTGATATTTTCTCTGATCATAGTCAGACCAACATTGCTACGACCCGTATTCGCACCGACAC | -1.05 ± 0.16 | -0.179 ± 0.051
ACATTTGTTGATACACCCATAAATTGATATTGCCACCCATAAATTGATATTGCTCACAACCATATATTGATATCTCCTCTGATCATAGTCAGACCAACATTGCTACGACCCGTATTCGCACCGACAC | -1.05 ± 0.22 | 0.239 ± 0.14
ACATTTGTTGATACACCCATAAATTGATATTGCCACCCATAAATTGATATTGCTCACACCCATAAATTGATAATTACTCTGATCATAGTCAGACCAACATTGCTACGACCCGTATTCGCACCGACAC | -1.21 ± 0.15 | 0.226 ± 0.19
ACATTTGTTGATACACCCATAAATTGATATTGCCACCCATAAATTGATATTGCTCACACCCATAAATTGATATTGCCTCTGATCATAGTCAGACCAACATTGCTACGACCCGTATTCGCACCGACAC | -0.939 ± 0.095 | 0.0807 ± 0.15
ACATTTGTTGATACACCCATAAATTGATATTGCCACCCATAAATTGATATTGCTCAGTGGGTATTTAACTATAACGCTCTGATCATAGTCAGACCAACATTGCTACGACCCGTATTCGCACCGACAC | -1.66 ± 0.34 | 2.19 ± 0.12
ACATTTGTTGATACATCCATAAAATGATAATTACAGCCATAAATTGATAATTATCACAGCCATAAATTGATATTGCCTCTGATCATAGTCAGACCAACATTGCTACGACCCGTATTCGCACCGACAC | -0.851 ± 0.072 | -0.607 ± 0.2
ACATTTGTTGATACATGCATAAAATGATAATTACACCCATAAATTGATAATTATCACACCCATAAATTGATATTGCCTCTGATCATAGTCAGACCAACATTGCTACGACCCGTATTCGCACCGACAC | -0.321 ± 0.046 | -0.66 ± 0.08
ACATTTGTTGATACATGGTTAAAATGATAATTACACCCATAAATTGATAATTATCACACCCATAAATTGATATTGCCTCTGATCATAGTCAGACCAACATTGCTACGACCCGTATTCGCACCGACAC | -1.62 ± 0.088 | -2.05 ± 0.37
ACATTTGTTGATACCACCATAAAATGATAATTACACCCATACATTGATAATTATCACACCCAATTTAACTATAACGCTCTGATCATAGTCAGACCAACATTGCTACGACCCGTATTCGCACCGACAC | -2.1 ± 0.38 | 0.947 ± 0.23
ACATTTGTTGATACCACCATAAAATGATAATTACACCCCTAAATTGATAATTATCACACCCAATTTAACTATAACGCTCTGATCATAGTCAGACCAACATTGCTACGACCCGTATTCGCACCGACAC | -2.41 ± 0.33 | 0.973 ± 0.2
ACATTTGTTGATACCACCATAAAATGATAATTACACCCCTACATTGATAATTATCACACCCAATTTAACTATAACGCTCTGATCATAGTCAGACCAACATTGCTACGACCCGTATTCGCACCGACAC | -3.75 ± 0.28 | -0.284 ± 0.22
ACATTTGTTGATACCACCATAAAATGATAATTACCCCCATAAATTGATAATTATCACCCCCATAAATTGATATTGCCTCTGATCATAGTCAGACCAACATTGCTACGACCCGTATTCGCACCGACAC | 0.364 ± 0.15 | 1.35 ± 0.29
